Results reported in patent publication US20150374741A1, “METHODS FOR MAINTAINING POPULATION OF THERAPEUTIC CELLS IN TREATMENT SITE OF SUBJECT IN NEED OF CELL THERAPY” (DCB-USA LLC, priority 2013, published 2015).

Assay: In vivo HA degradation tracked by Alexa Fluor 700 fluorescent signal (IVIS) in ischemic hindlimb
Design: species or system mice
Conditions: streptavidin alone injected into the hindlimb
Method: Biotinylated HA was suspended in deionized water overnight, and Alexa Fluor 700-conjugated streptavidin (Invitrogen, Grand Island, N.Y., USA) was prepared according to the manufacturer's instructions. The streptavidin and biotinylated HA were then mixed and gently agitated at 4° C. This mixture was filtered through Amicon centrifugal filter units (molecular-weight cut off 100 kDa; Millipore, Billerica, Mass., USA) to exclude extra streptavidin. The final products were freeze-dried and stored at 4° C.
hMSCs were cultured on 10-cm culture dishes and maintained at 37° C. under an atmosphere of 5% CO2 in air. A total of 4×10^6 hMSCs were mixed with 200 μl of αMEM culture medium or 1% HA and then injected into the ischemic muscles of mice. Immediately and at various intervals after the injection, the mice were imaged using a Xenogen IVIS® Spectrum device and the corresponding filter sets. The fluorescent intensity was determined by calculating the number of photons within the manually drawn ROI, and the intensity was adjusted to exclude tissue autofluorescence. […]

## Alexa Fluor 700 labeled streptavidin: Alexa Fluor 700-conjugated streptavidin (Invitrogen), injected alone as label control
  time until fluorescence disappeared: ≤ 12 h
